{"source": "patent US6495144B2", "about": "“EBNA2 peptides and methods of using same” (Johns Hopkins University School of Medicine, priority 1996, dated 2002)", "key": {"[1]": {"molecular_target": "T1, EBNA2 interaction with CBF1 in solution (Homo sapiens, UniProt Q06330)", "T1 construct": "made in house; host or cells: CBF1: in vitro translation", "T1 sequence (Q06330 whole entry)": "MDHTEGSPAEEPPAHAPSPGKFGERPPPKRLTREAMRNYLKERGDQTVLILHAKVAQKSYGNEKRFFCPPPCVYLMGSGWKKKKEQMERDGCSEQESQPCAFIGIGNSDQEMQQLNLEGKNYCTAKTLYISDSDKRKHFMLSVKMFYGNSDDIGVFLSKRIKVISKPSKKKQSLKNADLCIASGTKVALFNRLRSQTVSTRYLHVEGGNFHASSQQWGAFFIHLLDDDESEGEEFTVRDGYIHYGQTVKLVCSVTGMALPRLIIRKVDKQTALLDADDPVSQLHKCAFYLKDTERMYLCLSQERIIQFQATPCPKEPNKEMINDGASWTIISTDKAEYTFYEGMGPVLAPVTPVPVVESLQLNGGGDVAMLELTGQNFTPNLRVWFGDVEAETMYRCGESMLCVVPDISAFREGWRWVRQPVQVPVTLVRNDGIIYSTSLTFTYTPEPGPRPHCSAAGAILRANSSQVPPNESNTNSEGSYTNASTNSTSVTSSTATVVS", "assay": "GST affinity assay with GST-EBNA2 (252-425) and 35S-labeled in vitro translated CBF1", "type": "binding"}, "EBNA2/CBF1 complex": {"molecular_target": "T2, EBNA2/CBF1 complex (Homo sapiens, UniProt Q06330)", "T2 construct": "and heparin-agarose purified CBF1; endogenous in cells; host or cells: CBF1: heparin-agarose purified cell protein; EBNA2 252-425: in vitro translation", "T2 sequence (Q06330 whole entry, one chain of several)": "as the sequence (Q06330 whole entry) above", "assay": "EMSA competition of synthetic peptides for EBNA2/CBF1 complex formation", "type": "binding", "conditions": "for competition for EBNA2/CBF1 complex formation in EMSA, in words: 1.25-10 μg synthetic peptide", "method": "FIG. 8 is an EMSA that examines the ability of synthetic peptides representing CR5 (PEP.CR5), CR6 (PEP.CR6), mutant CR6 (CR6WW323SR) (PEP.CR6WW>SR), CR7 (PEP.CR7), and a control, nonconserved region comprising amino acids 265-279 (CONTROL) to compete for EBNA2/CBF1 complex formation. Increasing amounts of peptide (i.e., 1.25, 2.5, 5.0 and 10 μg; black triangles) were added to the binding reactions containing the Cp CBF1 binding site probe, in vitro translated wild-type EBNA2 (i.e., corresponding to amino acids 252-425) and heparin-agarose purified CBF1.\nCR6 could perform this function by generating a specific secondary or tertiary structure that facilitates interaction (e.g., a lock and key model of interaction). Alternately, CR6 could mediate direct protein-protein contacts, perhaps through the formation of a tryptophan bridge (Corina et al., Virology, 197, 391-396 (1993)). To further examine the proposed contributions of CR5, CR6, and CR7 in EBNA2 interaction, and to probe the role of CR6, five 10-15 amino acid peptides were synthesized. The peptides were tested for their ability to compete with a full length EBNA2 protein for complex formation with CBF1. The relative location of the peptides in the EBNA2 protein is illustrated in FIG. 2, and the exact position of the sequences can be determined from FIG. 5. The peptides are as follows: a control peptide comprised of amino acids 265-279 (i.e., Ser Thr Pro Asn Asp Pro Asp Ser Pro Glu Pro Xaa Ser Pro Thr [SEQ ID NO:8], wherein Xaa is Arg or Pro); a CR5 peptide comprised of amino acids 299-314 (i.e., Ala Pro Ala Gln Pro Pro Pro Gly Ile Ile Asn Asp Gln Gln Leu [SEQ ID NO:9]); a CR6 peptide comprised of amino acids 318-327 (i.e., Pro Ser Gly Pro Pro Trp Trp Pro Pro Ile [SEQ ID NO:6]); a CR6 WW323SR peptide comprised of amino acids 318-327 (i.e., Pro Ser Gly Pro Pro Ser Arg Pro Pro Ile [SEQ ID NO:10]); and a CR7 peptide comprised of amino acids 380-391 (i.e., Pro Ser Met Pro Glu Leu Ser Pro Val Leu Gly Leu [SEQ ID NO:11]).\nIncreasing amounts of the peptides were added to the binding reaction mixtures which were then analyzed using an EMSA (FIG. 8). […] It is known that EBNA2 can interact with CBF1 in solution (Grossman et al., supra; Henkel et al., supra). A typical binding reaction presumably contains both DNA-bound and non-DNA-bound EBNA2/CBF1 complexes."}}, "note": "Where no end group is shown, it is not given here.", "data": [{"substance": "PSGPPWWPPI [CR6 peptide]", "values": [{"measurement": "competition for EBNA2 interaction with CBF1 in GST affinity assay, in words", "setting": "[1]", "result": "could compete for EBNA2 interaction with CBF1 in solution"}, {"measurement": "competition for EBNA2/CBF1 complex formation in EMSA, in words", "setting": "EBNA2/CBF1 complex", "result": "regenerating the DNA-bound CBF1 complex to the levels seen in the absence of added EBNA2"}, {"measurement": "EBNA2/CBF1 complex eliminated by competition", "setting": "EBNA2/CBF1 complex; 1.25-10 μg synthetic peptide added to binding reaction", "result": 40, "unit": "%"}]}, {"substance": "APAQPPPGIINDQQL [CR5 peptide]", "values": [{"measurement": "competition for EBNA2/CBF1 complex formation in EMSA, in words", "setting": "EBNA2/CBF1 complex", "result": "Neither the control peptide nor the peptides spanning CR5 or CR7 had any effect on the formation of the EBNA2/CBF1 complex"}]}, {"substance": "Ser Thr Pro Asn Asp Pro Asp Ser Pro Glu Pro Xaa Ser Pro Thr [control peptide, reference compound]", "values": [{"measurement": "competition for EBNA2/CBF1 complex formation in EMSA, in words", "setting": "EBNA2/CBF1 complex", "result": "Neither the control peptide nor the peptides spanning CR5 or CR7 had any effect on the formation of the EBNA2/CBF1 complex"}]}, {"substance": "PSGPPSRPPI [CR6 WW323SR peptide]", "values": [{"measurement": "competition for EBNA2 interaction with CBF1 in GST affinity assay, in words", "setting": "[1]", "result": "abolished the ability of the peptide to compete with EBNA2 for interaction with CBF1"}, {"measurement": "competition for EBNA2/CBF1 complex formation in EMSA, in words", "setting": "EBNA2/CBF1 complex", "result": "abolished the ability of the peptide to compete with EBNA2 for interaction with CBF1"}]}, {"substance": "Pro Ser Met Pro Glu Leu Ser Pro Val Leu Gly Leu [CR7 peptide]", "values": [{"measurement": "competition for EBNA2/CBF1 complex formation in EMSA, in words", "setting": "EBNA2/CBF1 complex", "result": "Neither the control peptide nor the peptides spanning CR5 or CR7 had any effect on the formation of the EBNA2/CBF1 complex"}]}]}
